Data taken from patent US20080274129A1 (BIOTECH SYNERGY, published 2008).
Non-standard residues stand in square brackets, D forms with d. No end group written: not given here. Aib = CC(C)(N)C(=O)O

Experiments:
HLA-A2 supertype alleles = test: peptide binding to purified MHC molecules of the HLA-A2 supertype; count of alleles bound
[1] = target: T1, HLA-A2.1 molecule (purified) (human); test: peptide binding to purified HLA-A2.1 molecule
T1 construct: limits of the heavy chain and presence of b2m in the preparation are not described; also called HLA-A*0201; prototype HLA-A2.1 molecule

Row | No. A2 Alleles Crossbound (HLA-A2 supertype alleles) [alleles] | binding result [1] | Binder
1 | 4 |  | KL[Aib]PVQLWV (not fully specified) [p53.139L2B3]
2 | 5 | binds | IMIGHLVGV (also called peptide 1352.02) [CEA.691H5]
3 | 5 | binds | KVAEIVHFL (also called peptide 1352.03) [MAGE-3.112I5]
